Results from article PMC8123127, “Structural Bases for the Synergistic Inhibition of Human Thymidylate Synthase and Ovarian Cancer Cell Growth by Drug Combinations” (Cancers, 2021).

Legend:
purified protein [1] = substrate: Nc1nc2c(c(=O)[nH]1)N1CN(c3ccc(C(=O)N[C@@H](CCC(=O)O)C(=O)O)cc3)CC1CN2; experiment: purified protein; conditions: dUMP cofactor site in the catalytic pocket; varied: cofactor
purified protein [2] = substrate: O=c1ccn([C@H]2C[C@H](O)[C@@H](COP(=O)(O)O)O2)c(=O)[nH]1; experiment: purified protein; assay type: biochemical, Homo sapiens; conditions: mTHF substrate site in the catalytic pocket

B1: human thymidylate synthase (hTS) (Homo sapiens) (protein)
chain: MPVAGSELPRRPLPPAAQERDAEPRPPHGELQYLGQIQHILRCGVRKDDRTGTGTLSVFGMQARYSLRDEFPLLTTKRVFWKGVLEELLWFIKGSTNAKELSSKGVKIWDANGSRDFLDSLGFSTREEGDLGPVYGFQWRHFGAEYRDMESDYSGQGVDQLQRVIDTIKTNPDDRRIIMCAWNPRDLPLMALPPCHALCQFYVVNSELSCQLYQRSGDMGLGVPFNIASYALLTYMIAHITGLKPGDFIHTLGDAHIYLNHIEPLKIQLQREPRPFPKLRILRKVEKIDDFKAEDFQIEGYNPHPTIKMEMAV
notes: His6-tag protein (non-cleavable N-terminal His6-tag)
**Q.** For B1, which Km (purified protein [1]) is on record?
**A.** 5 µM

**Q.** And the Km (purified protein [2])?
**A.** 10 µM
